Reference: publication PMC11922060

B1: Sumo-tagged Drosophila Spd-2 SP2D (Spd-2 697-998), wild type [D. melanogaster] / itself (parent)
chain: LLPLKVTHTTLCWGSTKLRTDVRKSMQVKNTADKRLVIRLGIQGPGFQLVGTDSSTITLQAMECRSVVINFCPTVCGAAIGALSFYAPPGAHNSNQPGLEIPLYGYGGSASITINGLLKGPVGASFLTIGDVCELSAGPLSANLKFHNKGPLTAFVGISVDSTVLMKLRLSEAFEVRPSRLILPPNSERCVQILFRPNREDLKNILKKTAQVLTLANMRIFCGDEPNRQRMRSLVQRMSSRQREKLTSPMLDSIWGEFPDEQPVRNIGQLNEPPEFILDLVTVVRIIDVALTLNRDFDESSE

Variants of: B1
Test: SEC-MALS
Details: with itself; 200 µM protein; read off a plot

Row | screen value | Variant
1 | 46 kDa | chain 1 F126D
2 | 45 kDa | chain 1 P121D
